# Test results taken from patent US5580955A, “Fragments of neurofibromin (NF1) and method to reverse activated ras induced malignant transformation in mammalian cells” (Ludwig Institute for Cancer Research, priority 1995, dated 1996).
# Entries after “also recorded” stand apart in the source; their conditions may differ.
# B1: NF357: NF1 fragment, amino acid residues 1175-1531 of human type I neurofibromin (protein, UniProt P21359 1175-1531, looked up, fragment)
# chain: TRATFMEVLTKILQQGTEFDTLAETVLADRFERLVELVTMMGDQGELPIAMALANVVPCSQWDELARVLVTLFDSRHLLYQLLWNMFSKEVELADSMQTLFRGNSLASKIMTFCFKVYGATYLQKLLDPLLRIVITSSDWQHVSFEVDPTRLEPSESLEENQRNLLQMTEKFFHAIISSSSEFPPQLRSVCHCLYQATCHSLLNKATVKEKKENKKSVVSQRFPQNSIGAVGSAMFLRFINPAIVSPYEAGILDKKPPPRIERGLKLMSKILQSIANHVLFTKEEHMRPFNDFVKSNFDAARRFFLDIASDCPTSDAVNHSLSFISDGNVLALHRLLWNNQEKIGQYLSSNRDHKAV
# B2: NF 327: NF1 fragment, residues 1205-1531 (protein, UniProt P21359 1205-1531, looked up, fragment)
# chain: FERLVELVTMMGDQGELPIAMALANVVPCSQWDELARVLVTLFDSRHLLYQLLWNMFSKEVELADSMQTLFRGNSLASKIMTFCFKVYGATYLQKLLDPLLRIVITSSDWQHVSFEVDPTRLEPSESLEENQRNLLQMTEKFFHAIISSSSEFPPQLRSVCHCLYQATCHSLLNKATVKEKKENKKSVVSQRFPQNSIGAVGSAMFLRFINPAIVSPYEAGILDKKPPPRIERGLKLMSKILQSIANHVLFTKEEHMRPFNDFVKSNFDAARRFFLDIASDCPTSDAVNHSLSFISDGNVLALHRLLWNNQEKIGQYLSSNRDHKAV
# B3: NF91: NF1 fragment, amino acid residues 1441 to 1531; GST fusion in Table II, expressed from pMV7 plasmid in cells (protein, UniProt P21359 1441-1531, looked up, fragment)
# chain: LMSKILQSIANHVLFTKEEHMRPFNDFVKSNFDAARRFFLDIASDCPTSDAVNHSLSFISDGNVLALHRLLWNNQEKIGQYLSSNRDHKAV
# modifications: GST fusion
# B4: NF 292: NF1 fragment, residues 1205-1496 (protein, UniProt P21359 1205-1496, looked up, fragment)
# chain: FERLVELVTMMGDQGELPIAMALANVVPCSQWDELARVLVTLFDSRHLLYQLLWNMFSKEVELADSMQTLFRGNSLASKIMTFCFKVYGATYLQKLLDPLLRIVITSSDWQHVSFEVDPTRLEPSESLEENQRNLLQMTEKFFHAIISSSSEFPPQLRSVCHCLYQATCHSLLNKATVKEKKENKKSVVSQRFPQNSIGAVGSAMFLRFINPAIVSPYEAGILDKKPPPRIERGLKLMSKILQSIANHVLFTKEEHMRPFNDFVKSNFDAARRFFLDIASDCPTSDAVNHSL
# B5: NF 326: NF1 fragment, residues 1206-1531 (protein, UniProt P21359 1206-1531, looked up, fragment)
# chain: ERLVELVTMMGDQGELPIAMALANVVPCSQWDELARVLVTLFDSRHLLYQLLWNMFSKEVELADSMQTLFRGNSLASKIMTFCFKVYGATYLQKLLDPLLRIVITSSDWQHVSFEVDPTRLEPSESLEENQRNLLQMTEKFFHAIISSSSEFPPQLRSVCHCLYQATCHSLLNKATVKEKKENKKSVVSQRFPQNSIGAVGSAMFLRFINPAIVSPYEAGILDKKPPPRIERGLKLMSKILQSIANHVLFTKEEHMRPFNDFVKSNFDAARRFFLDIASDCPTSDAVNHSLSFISDGNVLALHRLLWNNQEKIGQYLSSNRDHKAV
# B6: NF 342: NF1 fragment, residues 1190-1531 (protein, UniProt P21359 1190-1531, looked up, fragment)
# chain: GTEFDTLAETVLADRFERLVELVTMMGDQGELPIAMALANVVPCSQWDELARVLVTLFDSRHLLYQLLWNMFSKEVELADSMQTLFRGNSLASKIMTFCFKVYGATYLQKLLDPLLRIVITSSDWQHVSFEVDPTRLEPSESLEENQRNLLQMTEKFFHAIISSSSEFPPQLRSVCHCLYQATCHSLLNKATVKEKKENKKSVVSQRFPQNSIGAVGSAMFLRFINPAIVSPYEAGILDKKPPPRIERGLKLMSKILQSIANHVLFTKEEHMRPFNDFVKSNFDAARRFFLDIASDCPTSDAVNHSLSFISDGNVLALHRLLWNNQEKIGQYLSSNRDHKAV
# B7: NF 80: NF1 fragment, residues 1452-1531 (protein, UniProt P21359 1452-1531, looked up, fragment)
# chain: HVLFTKEEHMRPFNDFVKSNFDAARRFFLDIASDCPTSDAVNHSLSFISDGNVLALHRLLWNNQEKIGQYLSSNRDHKAV
# B8: NF 266: NF1 fragment, residues 1175-1440 (protein, UniProt P21359 1175-1440, looked up, fragment)
# chain: TRATFMEVLTKILQQGTEFDTLAETVLADRFERLVELVTMMGDQGELPIAMALANVVPCSQWDELARVLVTLFDSRHLLYQLLWNMFSKEVELADSMQTLFRGNSLASKIMTFCFKVYGATYLQKLLDPLLRIVITSSDWQHVSFEVDPTRLEPSESLEENQRNLLQMTEKFFHAIISSSSEFPPQLRSVCHCLYQATCHSLLNKATVKEKKENKKSVVSQRFPQNSIGAVGSAMFLRFINPAIVSPYEAGILDKKPPPRIERGLK
# B9: NF338: NF1 protein fragment, amino acid residues 1194 to 1531, expressed from retroviral vector pMV7 (protein)
# chain: DTLAETVLADRFERLVELVTMMGDQGELPIAMALANVVPCSQWDELARVLVTLFDSRHLLYQLLWNMFSKEVELADSMQTLFRGNSLASKIMTFCFKVYGATYLQKLLDPLLRIVITSSDWQHVSFEVDPTRLEPSESLEENQRNLLQMTEKFFHAIISSSSEFPPQLRSVCHCLYQVVSQRFPQNSIGAVGSAMFLRFINPAIVSPYEAGILDKKPPPRIERGLKLMSKILQSIANHVLFTKEEHMRPFNDFVKSNFDAARRFFLDIASDCPTSDAVNHSLSFISDGNVLALHRLLWNNQEKIGQYLSSNRDHKAVGRRPFDKMATLLAYLGPPEHK
# Assays:
# [1] = system: c-HaRas protein; test: Ras GTPase stimulating activity: hydrolysis of [gamma-32P] GTP bound to c-HaRas protein, by GST fusion NF1 mutants; format: biochemical, murine; conditions: for Activation (fold), Ras GTPase activation: 20 ug/ml NF1 mutants; for Activation (fold), Ras GTPase activation / EC50, concentration required for 50% hydrolysis of GTP bound Ras: 25° C., 20 minutes
# From the text: N- and C- terminal deletion mutants were constructed by subcloning the corresponding PCR DNA fragments into the bacterial expression vector pGEX-2TH, as described in Maruta et al., supra. FIG. 4 sets forth the DNA fragments inserted into the expression vector. The number following NF of each mutant indicates the total amino acid residues included. The DNA fragments inserted include the DNA for human type I NF357, human type II NF1-GRD (amino acid residues 1355 to 1531 in addition to the insert of 21 amino acids) and murine c-HaRas (residues 1-189). The type II-specific insert of 21 amino acids is indicated by the number 21 above a triangle following codon 1371. This 21 amino acid insert is set forth in SEQ ID NO: 2. The solid rectangle indicates the GAP active center of 56 amino acids, whereas the shaded rectangle indicates a supporting domain of 22 amino acids.
# The expression vectors were transfected into E.coli and the protein expressed as GST fusion proteins. The fusion proteins were thereafter purified from E.coli as glutathione S-transfeRase fusion proteins and affinity-purified on a glutathione (GSH)-agarose column, as described in Maruta, et al., supra.
# The purified proteins were then screened for Ras GTPase stimulating activity. The assay was carried out for each of the NF357 deletion mutants.
# The hydrolysis of [gamma-^32 P] GTP bound to c-HaRas protein was determined by incubating with bound protein at 25° C. for 20 minutes in the presence or absence of each NF1 mutant preparation in 100 ul of a buffer containing 50 mMTris-HCl, pH 7.5, 15 mMMgCl2, 2.5 mM EDTA, 3 mM ATP, 1 mM dithiothreitol (DTT) and 0.5 mg/ml bovine serum albumin (BSA), then precipitating the unhydrolyzed [gamma-32P] GTP with charcoal, and finally measuring the radioactivity of the [gamma-32P] inorganic phosphate in the supernatant, as described previously, Maruta et al., supra. Protein concentrations were determined by the Bradford method with BSA as a standard.
# [2] = system: V-HaRas transformed NIH/3T3 cells; test: soft agar colony (SAC) formation by V-HaRas transformed NIH/3T3 cells transfected with NF1 fragment plasmids; format: cell-based; conditions: for SAC (%), relative soft agar colony forming ability: non-transfected clone #0 = 100; for Colonies/10^3 cells (number of colonies found in soft agar): 1000 cells per plate, 37° C., three weeks; for ability to form soft agar colonies (in words): compared with non-transfected parental V-HaRas transformed cells
# Procedure: The transfectants were then cloned in the presence of a neomycin analogue, i.e., G418 at 400 ug/ml. The transfectants were initially screened for viability in the G418 medium, following Maruta et al., supra., and Nur-E.-Kamal et al., supra.
# After the transfectants were screened for viability, the ability of the parental clone and each surviving transfectant to form soft agar colonies (SAC) were then examined by incubating 1000 cells per plate at 37° C. for three weeks under standard culture conditions, as described in Maruta et al., supra.
# [3] = system: V-HaRas transformed NIH/3T3 cells; test: morphology of V-HaRas transformed NIH/3T3 cells overexpressing NF1 fragments; format: cell-based; conditions: liquid culture, compared with parental V-HaRas transformed cells
# [4] = clones with relatively high (H) mRNA level
# [5] = clones with relatively high (H) steady-state mRNA level
# [6] = clone #8, relatively low (L) steady-state mRNA level
Molecule,Ras GTPase stimulation (in words) [1],"Activation (fold), Ras GTPase activation [1] [fold]","EC50, concentration required for 50% hydrolysis of GTP bound Ras [1] [µg/mL]",also measured
"NF56: NF1 fragment, amino acid residues 1441 to 1496 (RPFNDFVKSNFDAARRFFLDIASDCPTSDAVNHSLSFISDGNVLALHRLLWNNQEK)",no longer able to stimulate Ras GTPase activity; also recorded: cannot stimulate; also recorded: does not stimulate GTPase activity; also recorded: not capable of GTPase activation,0,,reversion of activated Ras induced transformation (in words) ([2]; expression of the fragment in transformed cells): leads to reversion of activated Ras induced transformation; also recorded: capable of reversing Ras transformation
B1,,14,0.50,"GTPase activity, times more active than NF91 [1]: twenty"
B2,,14,0.40,
B3,still stimulated Ras GTPase activity; also recorded: still able to stimulate normal Ras GTPase activity,10,10,"cell morphology [3]: morphologically flat; cell morphology ([3]; listed as NF91 (Sense)): Flat; efficiency of Ras GTPase stimulation, times less efficient compared to NF342 / NF357 [1]: twenty; SAC (%), relative soft agar colony forming ability [2, 4]: 0%; Colonies/10^3 cells (number of colonies found in soft agar) [2, 5]: 0 Colonies/10^3 cells; ability to form soft agar colonies (in words) [2]: no longer able to form any soft agar colonies"
B4,stimulate normal Ras GTPase activity,11,7.5,
B5,,11,1.5,
B6,,14,0.52,
B7,,0,,
B8,,0,,
B9,,,,"cell morphology [3]: differed significantly; SAC (%), relative soft agar colony forming ability ([2]; clone #8, relatively low (L) mRNA level): 5%; average size of the soft agar colony [2, 6]: medium; Colonies/10^3 cells (number of colonies found in soft agar) [2, 6]: 37 Colonies/10^3 cells; SAC (%), relative soft agar colony forming ability [2, 4]: 0.4%; Colonies/10^3 cells (number of colonies found in soft agar) [2, 5]: 3 Colonies/10^3 cells; ability to form soft agar colonies (in words) [2]: greatly reduced"
